Results on 3 molecules are retold here after patent US20220098319A1 (SHANGHAI PHARMAEXPLORER, published 2022).

By Kd is commonly meant the concentration at which binding is half-saturated. One may read the koff as a measure of how fast the partners let go of each other. One may read the kon as the second-order rate constant of association. In general, EC50 refers to the concentration needed to bring the measured effect to its halfway point.

Numbering of substitutions follows the chain as printed.

The target in assay [1] is T1, His-tagged CD73 extracellular domain protein (hCD73 ECD-His) (human, UniProt P21589 27-547).
T1 construct: Expressed in CHO cells from pTT5-hCD73 ECD-His6, purified on nickel column; also called hCD73 ECD-His6; human CD73 ECD
T1 sequence: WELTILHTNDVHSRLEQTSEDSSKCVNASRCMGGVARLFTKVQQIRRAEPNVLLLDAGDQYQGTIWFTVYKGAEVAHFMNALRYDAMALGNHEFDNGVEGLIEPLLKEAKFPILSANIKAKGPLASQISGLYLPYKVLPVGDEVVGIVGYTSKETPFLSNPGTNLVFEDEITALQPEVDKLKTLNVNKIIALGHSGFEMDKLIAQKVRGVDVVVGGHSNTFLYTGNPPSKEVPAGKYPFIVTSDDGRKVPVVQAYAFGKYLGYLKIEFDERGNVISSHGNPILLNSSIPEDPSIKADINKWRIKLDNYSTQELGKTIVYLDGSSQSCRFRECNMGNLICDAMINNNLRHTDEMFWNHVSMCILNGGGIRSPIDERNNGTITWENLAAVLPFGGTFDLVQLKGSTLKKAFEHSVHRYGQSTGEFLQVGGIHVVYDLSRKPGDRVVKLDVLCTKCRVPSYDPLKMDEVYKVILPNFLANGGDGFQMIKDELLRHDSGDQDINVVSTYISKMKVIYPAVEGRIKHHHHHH
In words: affinity to hCD73 ECD-His (headed SPR; Octet assumed as in 5.5). (In general: In BLI a coated tip is dipped into the sample, and binding shifts an interference pattern.)

Assay [2] has as its target T2, murine CD73 (on transfected CHOK1 cells) (mouse, UniProt Q61503 29-551).
T2 construct: whole, on cells; also called CHOK1-mCD73; mCD73
T2 sequence (looked up): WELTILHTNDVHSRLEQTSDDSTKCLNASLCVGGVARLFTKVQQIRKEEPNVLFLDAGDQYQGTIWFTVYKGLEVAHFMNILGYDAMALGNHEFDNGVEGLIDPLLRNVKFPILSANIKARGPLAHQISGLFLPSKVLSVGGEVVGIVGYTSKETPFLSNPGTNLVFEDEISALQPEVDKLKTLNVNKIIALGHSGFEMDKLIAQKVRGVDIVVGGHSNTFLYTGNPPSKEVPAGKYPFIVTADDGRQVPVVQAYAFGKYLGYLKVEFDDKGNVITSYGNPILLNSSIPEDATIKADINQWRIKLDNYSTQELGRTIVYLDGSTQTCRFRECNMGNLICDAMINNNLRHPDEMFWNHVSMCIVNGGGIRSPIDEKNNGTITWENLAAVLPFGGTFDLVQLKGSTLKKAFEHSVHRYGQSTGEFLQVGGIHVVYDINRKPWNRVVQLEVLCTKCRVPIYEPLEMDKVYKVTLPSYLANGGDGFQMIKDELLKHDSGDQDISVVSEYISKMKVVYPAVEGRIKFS
In words: FACS on CHOK1-mCD73 cells.

Assay [3] deals with T3, human CD73 (full length, on transfected CHOK1 cells) (human, UniProt P21589 27-549).
T3 sequence (looked up): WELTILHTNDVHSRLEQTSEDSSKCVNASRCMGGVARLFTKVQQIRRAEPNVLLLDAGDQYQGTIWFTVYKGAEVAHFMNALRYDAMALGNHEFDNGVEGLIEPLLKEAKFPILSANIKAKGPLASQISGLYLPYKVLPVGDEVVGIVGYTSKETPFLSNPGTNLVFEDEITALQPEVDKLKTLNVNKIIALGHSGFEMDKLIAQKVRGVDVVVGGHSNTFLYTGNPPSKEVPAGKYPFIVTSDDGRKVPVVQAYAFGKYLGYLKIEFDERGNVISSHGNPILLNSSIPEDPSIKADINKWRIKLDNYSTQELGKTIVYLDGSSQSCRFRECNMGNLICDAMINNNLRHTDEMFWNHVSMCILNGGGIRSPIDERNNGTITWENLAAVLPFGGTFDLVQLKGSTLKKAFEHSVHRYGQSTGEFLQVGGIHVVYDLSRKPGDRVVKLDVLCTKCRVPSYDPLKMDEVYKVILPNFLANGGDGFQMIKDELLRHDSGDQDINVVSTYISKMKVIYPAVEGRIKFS
In words: cell-based or functional assay.

The target of assay [4] is T3, human CD73 (full length, on transfected …). In words: FACS on CHOK1-hCD73 cells.
The target of assay [5] is T1, His-tagged CD73 extracellular domain …. In words: Octet BLI, antibody on AHC sensor, antigen 50-200 nM, 1:1 fit. The text has this: Octet Red 96 was selected as the test instrument, and AHC biosensor was selected as the test sensor in this experiment. Anti-human IgG Fc antibody has been immobilized on the AHC sensor, which can be used to directly capture the 15 antibodies in this experiment. Then the sensor was immersed in the analysis sample (antigen). There were five steps in this experiment: 1, Baseline (120 s) 2, Loading (capture antibody) (300 s) 3, Baseline (120 s) 4, Association (binding antigen) (180 s) 5, Dissociation (antigen dissociation) (1200 s). After the test was completed, the regeneration buffer (Glycine PH1.5) and the neutralization buffer (1*PBS buffer) were alternately immersed for 5 seconds, and the sensor was regenerated by a total of five cycles. The maximum number of sensor regeneration times is 10. The running buffer in this experiment is the sample diluent (1*PBS buffer containing 0.02% Tween20 and 0.1% BSA), that is, the buffer used in the Baseline step, the Dissociation step, and the blank analyte sample. Four sensors are used at one running in this experiment.
Sample treatment: all the antibodies were diluted to the working concentration of 10 ug/ml with sample diluent (1*PBS buffer containing 0.02% Tween20 and 0.1% BSA), and the analyte samples (antigens) were diluted to three working concentrations: 200 nM, 100 nM and 50 nM.
For data analysis, Octet Data Analysis (version 7.0) was used to calculate the response signal value (the signal of the coupled analyte sample minus the signal of the blank analyte sample), and a 1:1 binding model was used to fit the data.

The target in assay [6] is T4, cynomolgus monkey CD73 (on transfected CHOK1 cells) (cynomolgus monkey, UniProt A0A2K5V5U7 27-549).
T4 construct: whole, on cells; also called CHOK1-cCD73; CHOK1-CCD73
T4 sequence: T3 sequence (looked up) with M199T, T350A, V466I
In words: FACS on CHOK1-cCD73 cells.

B1: Hu030-2, humanized anti-CD73 antibody (Hu030VH g1 / Hu030VL g0) (antibody, V domains shown)
VH: QVQLQESGPGLVKPSETLSLTCTVSGYSITSRYYWNWIRQPPGKGLEWIGYITYDDNNNYNPSLKNRVTISRDTSKNQFSLKLSSVTAADTAVYYCARGGWDPFLYWGQGTLVTVSS
VL: DIQMTQSPSSLSASVGDRVTITCRASDNIYSYLAWYQQKPGKAPKLLIYSAKNLGEGVPSRFSGSGSGTDFTLTISSLQPEDFATYYCQHYYGTPFTFGGGTKVEIK
notes: also called antibody 11
In assay [1], B1 yielded a Kd of 0.0208 nM, a koff of 1.55e-05 s⁻¹ and a kon of 746000 M⁻¹ s⁻¹.

B2: mab030xhIgG1TM (clone 42A5A7), mouse-human chimeric anti-CD73 antibody (antibody, V domains shown)
VH: DIQLQESGPGLVKPSQSLSLTCSVTGYSITSRYYWNWIRQFPGNKLEWMGYITYDDNNNYNPSLKNRISITRDTSKNQFFLKLNSVTPEDTATYYCARGGWDPFLYWGQGTLVTVSA
VL: DIQMTQSPASLSASVGETVTITCRASDNIYSYLAWYQQKQGKSLQLLVDSAKNLGEGVPSRFSGSGSGTQFYLKINSLQPEDFGVYYCQHYYGTPFTFGGGTKLELK
notes: also called mAb030 chimeric antibody
In the case of B2, the binding result in assay [2] is on record as “no binding”. In assay [3], the “Inhibition assay of enzyme activity, IC50” value came out at 0.1 nM and the “Inhibition assay of enzyme activity, MAX % inhibition” value was 67.4%. For the same molecule, in assay [4], it took 1.5 nM to reach a half-maximal effect (EC50) and the “MAX MFI fold” value was 114 fold. Moreover, in assay [1], binding was put at a Kd of 0.0316 nM, the koff came to 2.27e-05 s⁻¹ and the kon worked out at 719000 M⁻¹ s⁻¹. In addition, in assay [5], the Kd was 0.0385 nM, the koff is 1.16e-05 s⁻¹ and the kon turned out to be 302000 M⁻¹ s⁻¹. Besides, in assay [6], the EC50 came to 0.8 nM and the “MAX MFI fold” value turned out to be 138 fold.

B3: mab065xhIgG1TM (clone 125A4E10), mouse-human chimeric anti-CD73 antibody (antibody, V domains shown)
VH: EVQLQQSGPELVKPGASVKISCKASGYTFTDYYMNWVKQSHGKSLEWIGNINPNNGDTNYNQKFKGKATLTVDKSSSTASMELRSLTSEDSAVYYCANSGYYYFDYWGQGTTLTVSS
VL: DIVMTQSPSSLTVTAGEKVTMSCKSSQSLLNSGNQKNYLTWYQQKPGQPPKVLIYWASTRESGVPDRFTGSGSGTDFTLTISSVQAEDLAVYYCQNDYSYPPTFGGGTNLEIK
notes: also called mAb065 chimeric antibody
For B3, in assay [2], the binding result was “no binding”. For the same molecule, in assay [3], the “Inhibition assay of enzyme activity, IC50” value turned out to be 0.1 nM and the “Inhibition assay of enzyme activity, MAX % inhibition” value worked out at 54.7%. In assay [4], the EC50 worked out at 1.2 nM and the “MAX MFI fold” value amounted to 160 fold. In assay [5], the affinity, expressed as Kd, was 0.112 nM; the off-rate (koff) was found to be 4.86e-05 s⁻¹; the kon was 434000 M⁻¹ s⁻¹. Further, in assay [6], it took 3.6 nM to reach a half-maximal effect (EC50) and the “MAX MFI fold” value was determined as 173 fold.
